From paper PMC6935017 (Cell, 2018)

B1: Streptococcus thermophilus Csm2 (natural protein, Streptococcus thermophilus ND03, UniProt A0A0A7HIX1 1-121, looked up)
chain: MAILTDENYVDKAERAISLLEKDNKGNYLLTTSQIRKLLSLCSSLYDRSKERKFDELINDVSYLRVQFVYQAGREIAVKDLIEKAQILEALKEIKDRETLQRFCRYMEALVAYFKFYGGKD
B2: Streptococcus thermophilus Csm3 (natural protein, Streptococcus thermophilus ND03)
chain: MTFAKIKFSAQIRLETGLHIGGSDAFAAIGAIDSPVIKDPITNIPIIPGSSLKGKMRTLLAKVYNEKVAEKPSDDSDILSRLFGNSKDKRFKMGRLIFRDAFLSNADELDSLGVRSYTEVKFENTIDRITAEANPRQIERAIRNSTFDFELIYEITDENENQVEEDFKVIRDGLKLLELDYLGGSGSRGYGKVAFEKLKATTVFGNYDVKTLNELLTAEV

Target: the molecule itself
Test: crystal structure

| Protein | stoichiometry N |
| --- | --- |
| B1 | 2 |
| B2 | 3 |
